Key:
Assay in all cases: SPR
Conditions in all cases: both partners purified
[1] = biological target: T1, Recombinant Human Vimentin Protein, CF (human, UniProt P08670 1-466)
T1 construct: source: bought: Novus Biologicals, LLC/R&D Systems

[2] = biological target: T2, Recombinant Human GRP75/HSPA9B/Mortalin His Protein (human, UniProt P38646 47-679)
T2 construct: source: bought: Novus Biologicals, LLC/R&D Systems

[3] = biological target: T1, Recombinant Human Vimentin Protein, CF; remark: listed apart in the source
[4] = biological target: T2, Recombinant Human GRP75/HSPA9B/Mortalin …; remark: listed apart in the source

T1 sequence (P08670 whole entry): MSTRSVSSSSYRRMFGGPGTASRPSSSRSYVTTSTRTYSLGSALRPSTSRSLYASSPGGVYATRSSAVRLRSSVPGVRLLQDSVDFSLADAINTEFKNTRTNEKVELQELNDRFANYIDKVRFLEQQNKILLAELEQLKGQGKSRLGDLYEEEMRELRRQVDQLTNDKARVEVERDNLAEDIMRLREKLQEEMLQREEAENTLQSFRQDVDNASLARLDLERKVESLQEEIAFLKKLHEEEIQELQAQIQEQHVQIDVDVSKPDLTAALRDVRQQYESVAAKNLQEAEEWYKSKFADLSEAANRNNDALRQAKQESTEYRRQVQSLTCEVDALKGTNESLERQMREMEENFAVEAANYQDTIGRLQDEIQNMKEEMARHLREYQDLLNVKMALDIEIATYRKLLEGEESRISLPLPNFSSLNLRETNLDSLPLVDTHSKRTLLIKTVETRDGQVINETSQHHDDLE
T2 sequence (P38646 47-679): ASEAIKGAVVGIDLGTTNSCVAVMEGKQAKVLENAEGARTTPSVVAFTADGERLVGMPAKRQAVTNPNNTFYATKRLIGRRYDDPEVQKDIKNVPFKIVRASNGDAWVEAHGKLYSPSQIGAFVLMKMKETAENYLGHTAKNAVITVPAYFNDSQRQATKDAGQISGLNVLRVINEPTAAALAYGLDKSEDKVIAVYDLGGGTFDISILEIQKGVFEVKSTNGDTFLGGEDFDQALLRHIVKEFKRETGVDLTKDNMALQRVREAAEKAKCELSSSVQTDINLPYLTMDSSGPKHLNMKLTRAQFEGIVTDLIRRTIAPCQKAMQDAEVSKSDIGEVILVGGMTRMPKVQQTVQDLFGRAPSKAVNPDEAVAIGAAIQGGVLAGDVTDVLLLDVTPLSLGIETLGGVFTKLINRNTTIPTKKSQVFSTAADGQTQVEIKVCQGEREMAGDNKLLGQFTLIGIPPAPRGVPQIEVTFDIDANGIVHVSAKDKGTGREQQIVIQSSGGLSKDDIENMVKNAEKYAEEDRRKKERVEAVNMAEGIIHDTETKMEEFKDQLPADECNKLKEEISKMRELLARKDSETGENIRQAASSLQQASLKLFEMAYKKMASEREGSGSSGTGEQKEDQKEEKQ

B1: HIV-1 Nef protein (natural protein)
chain: MGGKWSKSSVVGWPTVRERMRRAEPAADGVGAASRDLEKHGAITSSNTAATNAACAWLEAQEEEEVGFPVTPQVPLRPMTYKAAVDLSHFLKEKGGLEGLIHSQRRQDILDLWIYHTQGYFPDWQNYTPGPGVRYPLTFGWCYKLVPVEPDKVEEANKGENTSLLHPVSLHGMDDPEREVLEWRFDSRLAFHHVARELHPEYFKNC
notes: also called full Nef protein
[1]
  Kd: 0.2 nM
[2]
  Kd: 2.1 nM
[3]
  Kd: 0.75 nM
[4]
  Kd: 3.16 nM
